The record followed here is PMC6768651, “A ubiquitin-like domain controls protein kinase D dimerization and activation by trans-autophosphorylation” (The Journal of Biological Chemistry, 2019).

Substitutions are numbered along the chain they refer to. Names may count otherwise.

The labels stand for the following.
B1: DKF-1 ULD (DKF-1^1–94) [C. elegans] / Atto488-labeled DKF-1 ULD^R42C [modified: Atto488 (maleimide-conjugated) on cysteine 42; Atto488 (maleimide-conjugated) on cysteine 42] [C. elegans] (parent complex)
chain 1: MDGSQGSTDYGDHVVLRYGGTREMVPLIRHEQMLDMLMERARQIVQGFGNLDTRNMYLFRHEYNSPTLLYPITSASQITSGSILEIILVDRTEA
chain 2: B1 chain 1 with R42C

The variants in this experiment derive from B1. The experiment in a line: fluorescence anisotropy; highest titration point: ULD F59E about 27 µM; parent value is the highest ULD WT point, about 20 µM; parent: 0.024; read off a plot.
For chain 1 F59E, the response was roughly 0.003.
